{
  "source": "patent US7432061B2",
  "about": "“Assays for measuring matrix metalloproteinase activities” (BioZyme, Inc., priority 2002, dated 2008)",
  "format_in_all_cases": "biochemical",
  "key": {"collagenase 3 [1]": {"target": "T1, collagenase 3 (Homo sapiens, UniProt P45452)", "experiment": "kcat/Km of fluorescence peptide substrates", "conditions": "for Col-3 Specificity Constant: fluorescence substrate, + Gel = PRIONEX GELATIN 1:250"}, "stromelysin 1 [2]": {"target": "T2, stromelysin 1 (Homo sapiens, UniProt P08254)", "T2 sequence (P08254 100-477)": "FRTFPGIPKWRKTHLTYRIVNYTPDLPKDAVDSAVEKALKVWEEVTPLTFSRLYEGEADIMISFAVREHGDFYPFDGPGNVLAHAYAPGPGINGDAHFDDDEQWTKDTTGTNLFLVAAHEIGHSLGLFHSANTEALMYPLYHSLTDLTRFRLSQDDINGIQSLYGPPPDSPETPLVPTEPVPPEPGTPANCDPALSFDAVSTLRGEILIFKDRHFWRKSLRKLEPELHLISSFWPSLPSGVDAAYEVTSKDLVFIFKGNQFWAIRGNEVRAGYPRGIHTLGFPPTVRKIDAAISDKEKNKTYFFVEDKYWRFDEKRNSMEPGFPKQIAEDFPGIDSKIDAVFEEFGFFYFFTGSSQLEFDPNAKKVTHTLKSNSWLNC", "experiment": "kcat/Km of fluorescence peptide substrates", "conditions": "for reduction of substrate selectivity for stromelysin 1 relative to FlSb1: fluorescence substrates; for Strom1 Selectivity v Col-3: fluorescence substrate, + Gel = PRIONEX GELATIN 1:250"}, "collagenase 3 [3]": {"target": "T1, collagenase 3", "experiment": "Inhibition with type II collagen, FlSub3 cleavage", "conditions": "Time Period 0.85 to 2.10 Hours; 20 uM FlSub3 with bovine type II collagen", "protocol": "In a 96 well plate, collagenase 3 (0.013 nM), collagenase 1 (1.25 nM), stromelysin 1 (0.8 nM), gelatinase A (0.025 nM), or gelatinase B (0.008 nM) were reacted with 20 uM FlSub3 in standard assay buffer in the presence of varying concentrations of bovine type II collagen (0.18-44 ug/ml). The type II collagen, a 1 mg/ml stock in 0.5M acetic acid, was transferred into assay buffer by passing the material through a biospin P6 column from Amersham. The reaction was initiated by addition of substrate to enzyme containing either buffer or an appropriate amount of type II collagen. Data points were taken every 15 min over a period of 15 hours using an excitation and emission wavelength of 350 and 485 nm respectively. The usable data (1-6 hours), was taken and the percent inhibition by type II collagen was calculated for each enzyme and plotted as a function of inhibitor concentration and time in the assay. It should be noted that the percent inhibition varies with time as the bovine substrate is consumed during the reaction course."}, "collagenase 1": {"target": "T3, collagenase 1 (Homo sapiens, UniProt P03956)", "T3 sequence (P03956 100-469)": "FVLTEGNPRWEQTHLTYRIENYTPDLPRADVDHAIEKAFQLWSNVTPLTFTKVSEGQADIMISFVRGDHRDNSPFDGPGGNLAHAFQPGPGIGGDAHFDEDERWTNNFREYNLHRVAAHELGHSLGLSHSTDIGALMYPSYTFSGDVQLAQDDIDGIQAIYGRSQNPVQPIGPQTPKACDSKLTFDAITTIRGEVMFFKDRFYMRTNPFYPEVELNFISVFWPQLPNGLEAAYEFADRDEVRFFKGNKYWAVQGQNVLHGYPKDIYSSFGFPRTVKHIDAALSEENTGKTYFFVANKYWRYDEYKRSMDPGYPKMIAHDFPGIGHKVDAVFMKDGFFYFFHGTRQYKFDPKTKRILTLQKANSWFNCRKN", "experiment": "Cleavage of biglycan and type IV collagen by MMPs (gel)", "conditions": "equal concentration of enzyme as col-3", "protocol": "(§1) Reactions were carried out on a small scale to optimize the enzyme to full length protein ratios. For biglycan, optimum results were obtained with a ratio of 1:100 (20-40 nM col-3 and 4.3 μM biglycan in a 10 μl reaction). For type IV collagen, best results were found with a ratio of 1:50 (28 nM col-3 and 2 μM type IV collagen). For comparison with the other MMPs, an equal concentration of enzyme was used."}, "gelatinase A": {"target": "T4, gelatinase A (Homo sapiens, UniProt P08253)", "T4 sequence (P08253 110-660)": "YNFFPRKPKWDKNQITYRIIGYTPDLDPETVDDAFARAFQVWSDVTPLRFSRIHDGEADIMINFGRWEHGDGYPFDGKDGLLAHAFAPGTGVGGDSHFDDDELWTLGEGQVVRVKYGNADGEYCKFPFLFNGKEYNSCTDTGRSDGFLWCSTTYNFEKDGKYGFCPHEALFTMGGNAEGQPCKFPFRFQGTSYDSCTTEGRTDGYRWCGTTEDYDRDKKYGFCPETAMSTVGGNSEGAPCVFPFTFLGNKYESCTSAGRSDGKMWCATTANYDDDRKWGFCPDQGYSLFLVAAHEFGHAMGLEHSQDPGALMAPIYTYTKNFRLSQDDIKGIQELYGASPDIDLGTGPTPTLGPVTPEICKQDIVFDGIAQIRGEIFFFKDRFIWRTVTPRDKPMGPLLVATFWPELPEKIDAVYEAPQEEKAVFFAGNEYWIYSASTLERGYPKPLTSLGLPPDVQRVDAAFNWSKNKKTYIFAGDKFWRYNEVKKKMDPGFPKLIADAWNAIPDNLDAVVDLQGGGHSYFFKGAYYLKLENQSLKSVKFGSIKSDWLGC", "experiment": "Cleavage of biglycan and type IV collagen by MMPs (gel)", "conditions": "earlier experiment", "protocol": "as §1"}, "gelatinase B": {"target": "gelatinase B (Homo sapiens, UniProt P14780)", "sequence (P14780 94-707)": "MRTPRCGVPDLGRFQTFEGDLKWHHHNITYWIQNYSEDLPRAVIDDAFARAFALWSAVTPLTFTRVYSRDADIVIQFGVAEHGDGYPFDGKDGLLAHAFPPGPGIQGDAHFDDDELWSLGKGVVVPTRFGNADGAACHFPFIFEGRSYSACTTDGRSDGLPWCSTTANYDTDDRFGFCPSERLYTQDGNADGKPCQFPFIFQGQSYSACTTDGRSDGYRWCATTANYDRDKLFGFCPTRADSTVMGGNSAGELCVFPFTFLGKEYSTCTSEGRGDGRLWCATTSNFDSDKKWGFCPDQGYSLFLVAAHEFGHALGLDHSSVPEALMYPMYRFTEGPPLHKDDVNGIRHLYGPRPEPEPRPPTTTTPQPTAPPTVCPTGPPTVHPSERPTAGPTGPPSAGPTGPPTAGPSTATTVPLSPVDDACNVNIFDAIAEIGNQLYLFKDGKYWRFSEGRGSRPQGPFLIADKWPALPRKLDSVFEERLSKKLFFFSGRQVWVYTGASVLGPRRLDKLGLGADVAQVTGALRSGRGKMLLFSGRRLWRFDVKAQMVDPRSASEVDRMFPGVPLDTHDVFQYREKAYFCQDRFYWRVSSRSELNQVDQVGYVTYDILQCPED", "experiment": "Cleavage of biglycan and type IV collagen by MMPs (gel)", "conditions": "equal concentration of enzyme as col-3", "protocol": "as §1"}, "stromelysin 1 [4]": {"target": "T2, stromelysin 1", "experiment": "Cleavage of biglycan and type IV collagen by MMPs (gel)", "conditions": "equal concentration of enzyme as col-3", "protocol": "as §1"}},
  "note": "Primed or numbered codes have the meaning given here. The star is where a group is joined. Dabcyl″ = Dabcyl quencher at the N-terminus, CN(C)c1ccc(/N=N/c2ccc(C(=O)*)cc2)cc1; Flu = fluorescein label on the cysteine side chain; Dabcyl′ = CN(C)c1ccc(/N=N/c2ccc(C(=O)*)cc2)cc1; fluorescein = fluorescein label",
  "data": [
    {"molecule": "Dabcyl-GPVNLHGC(Flu)-NH2 ({Dabcyl″}-GPVNLHGC(Flu)-NH2) [FISb3]", "values": [
      {"measurement": "Col-3 Specificity Constant", "setting": "collagenase 3 [1]", "value": "4.21E+05 1/sM"},
      {"measurement": "reduction of substrate selectivity for stromelysin 1 relative to FlSb1", "setting": "stromelysin 1 [2]", "value": "approximately 10 fold"},
      {"measurement": "Col-3 Specificity Constant", "setting": "collagenase 3 [3]", "value": "1.11E+06 1/sM"}
    ]},
    {"molecule": "Dab-SYPSGIHLC(Flu)LQR-NH2 ({Dabcyl″}-SYPSGIHLC(Flu)LQR-NH2) [FlSb2, fluorescence substrate based on the sulfate transporter]", "values": [
      {"measurement": "less sensitive for collagenase 3 compared to the consensus substrate", "setting": "collagenase 3 [1]; compared to FlSb1", "value": 100, "unit": "fold"},
      {"measurement": "selectivity compared to FlSb1", "setting": "collagenase 3 [1]; kcat/Km against the five MMPs", "value": "less selective"}
    ]},
    {"molecule": "Dabcyl-GPHPFRGC(Flu)-NH2 ({Dabcyl″}-GPHPFRGC(Flu)-NH2) [FISb4]", "values": [
      {"measurement": "Col-3 Specificity Constant", "setting": "collagenase 3 [1]", "value": "3.27E+04 1/sM"},
      {"measurement": "reduction of substrate selectivity for stromelysin 1 relative to FlSb1", "setting": "stromelysin 1 [2]", "value": "approximately 10 fold"}
    ]},
    {"molecule": "type IV collagen: full length protein digested with collagenase 3 and other MMPs", "values": [
      {"measurement": "cleavage of full length protein by collagenase 1", "setting": "collagenase 1", "value": "processed"},
      {"measurement": "cleavage of full length protein by gelatinase A", "setting": "gelatinase A", "value": "No detectable cleavage"},
      {"measurement": "cleavage of full length protein by gelatinase B", "setting": "gelatinase B", "value": "processed"}
    ]},
    {"molecule": "Dabcyl-GPLGMRGC(Fluorescein)-NH2 ({Dabcyl′}-GPLGMRGC(fluorescein)-NH2) [FISb1]", "values": [
      {"measurement": "Strom1 Selectivity v Col-3", "setting": "stromelysin 1 [2]", "value": 707.5, "unit": "unitless"},
      {"measurement": "Strom1 Selectivity v Col-3", "setting": "stromelysin 1 [2]; listed as Fluorescence Substrate 1", "value": 3665, "unit": "unitless"}
    ]},
    {"molecule": "biglycan: proteoglycan, full length protein digested with collagenase 3 and other MMPs (protein, UniProt P21810 38-368, looked up) Biglycan: DEEASGADTSGVLDPDSVTPTYSAMCPFGCHCHLRVVQCSDLGLKSVPKEISPDTTLLDLQNNDISELRKDDFKGLQHLYALVLVNNKISKIHEKAFSPLRKLQKLYISKNHLVEIPPNLPSSLVELRIHDNRIRKVPKGVFSGLRNMNCIEMGGNPLENSGFEPGAFDGLKLNYLRISEAKLTGIPKDLPETLNELHLDHNKIQAIELEDLLRYSKLYRLGLGHNQIRMIENGSLSFLPTLRELHLDNNKLARVPSGLPDLKLLQVVYLHSNNITKVGVNDFCPMGFGVKRAYYNGISLFNNPVPYWEVQPATFRCVTDRLAIQFGNYKK", "values": [
      {"measurement": "cleavage of full length protein by gelatinase B", "setting": "gelatinase B", "value": "able to degrade"},
      {"measurement": "cleavage of full length protein by stromelysin 1", "setting": "stromelysin 1 [4]", "value": "able to degrade"}
    ]}
  ]
}
